The target in the experiment is recombinant human MCL-1ΔNΔC (amino acids 172–320) (human, UniProt Q07820 172-320). In words: fluorescence polarisation. Background: Polarisation of emitted light reports the rotation of a fluorescent probe.

By Kd is commonly meant the constant that tells how readily two partners part at equilibrium.

Positions of bridges follow the written chain, without caps; N, C: chain ends. Non-standard residues stand in square brackets, D forms with d. No end group written: not given here. *: point of attachment. FITC = O=C1OC2(c3ccc(O)cc3Oc3cc(O)ccc32)c2ccc(NC(=S)*)cc21; S5 = C=CCCC[C@](C)(N)C(=O)O; Nle = CCCC[C@H](N)C(=O)O; βAla = NCCC(=O)O

Chain of recombinant human MCL-1ΔNΔC (amino acids 172–320) (Q07820 172-320, stated change not applied): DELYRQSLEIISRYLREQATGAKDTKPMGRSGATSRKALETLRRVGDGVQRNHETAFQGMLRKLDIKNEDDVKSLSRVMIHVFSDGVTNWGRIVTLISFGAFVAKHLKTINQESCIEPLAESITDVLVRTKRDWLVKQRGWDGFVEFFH

B1: FITC-BID SAHBA (peptide)
chain: {FITC-βAla}-DIIRNIARHLA[S5]VGD[S5][Nle]DRSI
modifications: staple 12-16
Take B1: the Kd is ≤ 50 nM.

B2: FITC-PUMA SAHBA (peptide)
chain: {FITC-βAla}-QWAREIGAQLR[S5][Nle]AD[S5]LNAQY
modifications: staple 12-16
With B2, the Kd is ≤ 50 nM.

For the origin of these results see paper PMC3033224 (Nature chemical biology, 2010).
